# Experimental data published in patent US20090044296A1 (CORNELL RESEARCH FOUNDATION, published 2009).
# B1: HIPM (HrpN-interacting protein from Malus), original yeast two-hybrid clone with the 53 C-terminal amino acids (other)
# chain: GDRWSMRILWACAIGSAVSLYMVAVDRQLKNRERALAEELKAMEAESGSGEIV
# notes: Residues 8-60 are worked out from that; also called pB42AD-HIPM; pAD-HIPM
# B2: HrpN (harpin) of Erwinia amylovora, full-length, yeast two-hybrid construct (other)
# chain: MSLNTSGLGASTMQISIGGAGGNNGLLGTSRQNAGLGGNSALGLGGGNQNDTVNQLAGLLTGMMMMMSMMGGGGLMGGGLGGGLGNGLGGSGGLGEGLSNALNDMLGGSLNTLGSKGGNNTTSTTNSPLDQALGINSTSQNDDSTSGTDSTSDSSDPMQQLLKMFSEIMQSLFGDGQDGTQGSSSGGKQPTEGEQNAYKKGVTDALSGLMGNGLSQLLGNGGLGGGQGGNAGTGLDGSSLGGKGLQNLSGPVDYQQLGNAVGTGIGMKAGIQALNDIGTHSDSSTRSFVNKGDRAMAKEIGQFMDQYPEVFGKPQYQKGPGQEVKTDDKSWAKALSKPDDDGMTPASMEQFNKAKGMIKSAMAGDTGNGNLQARGAGGSSLGIDAMMAGDAINNMALGKLGAA
# notes: also called pGilda-hrpN; full-length HrpN protein
# B3: AtHIPM, 52 amino acid fragment orthologous to the original HIPM prey clone (other)
# chain: NDKWSMRILWGCAIGSAIGLYMVAVERQTQNRARAMAESLRAAESQGDGDNV
# How the values were obtained:
# [1] = target: AtHIPM, endogenous protein in Arabidopsis thaliana ecotype Columbia plants (Arabidopsis thaliana); assay: cell-based or functional assay
# [2] = target: T1, LexA-lamin (UniProt P02545 66-230); assay: yeast two-hybrid (LexA system), growth without leucine
# T1 construct: not shown: LexA part of the fusion
# T1 sequence: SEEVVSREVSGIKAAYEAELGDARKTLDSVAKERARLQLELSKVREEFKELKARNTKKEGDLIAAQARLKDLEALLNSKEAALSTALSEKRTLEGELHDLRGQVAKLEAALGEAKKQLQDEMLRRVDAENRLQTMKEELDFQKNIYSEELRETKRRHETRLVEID
# [3] = target: B2; assay: yeast two-hybrid (LexA system), HrpN bait, apple cDNA prey clone
# [4] = target: the molecule itself; assay: yeast two-hybrid (LexA system), self-interaction
# [5] = target: T2, HrpN-4, truncated derivative of HrpN spanning residues 1-198 (Erwinia amylovora, UniProt Q01099 1-198); assay: yeast two-hybrid, HrpN deletions in pGilda against pB42AD-HIPM
# T2 construct: Cloned in pGilda (LexA fusion, bait)
# T2 sequence (looked up): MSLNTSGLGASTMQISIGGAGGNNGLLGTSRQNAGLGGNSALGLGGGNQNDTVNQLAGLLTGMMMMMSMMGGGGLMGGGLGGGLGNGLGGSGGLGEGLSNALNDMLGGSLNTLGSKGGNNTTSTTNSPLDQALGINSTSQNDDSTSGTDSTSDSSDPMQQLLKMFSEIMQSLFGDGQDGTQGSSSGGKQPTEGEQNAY
# From the text: Transformants were selected on minimal synthetic dropout (“SD”) medium containing glucose but lacking histidine and tryptophan (“SD/glu-HT”). To identify yeast transformants with positive interaction, the transformants were screened on SD medium with galactose but without histidine, tryptophan, and leucine (“SD/gal-HTL”). Yeast colonies with positive interaction grow in this medium. A yeast strain transformed with p53 as bait and large antigen T as prey was used as a positive control. […] Yeast cell cultures were grown overnight in the SD/glu-HT medium. The cells then were washed once with water and resuspended in water. 10 μl of yeast cell suspension (OD₆₀₀=0.2) was dropped on SD/gal-HTL plates. As a control, the same yeast suspension was dropped on SD/gal-HT plates with leucine.
# [6] = target: B2; assay: yeast two-hybrid (LexA system), growth with or without leucine
molecule,measurement,setting,value
"HrpN as applied to plants (Messenger, Eden Bioscience; 15 ug/ml of HrpN) (from UniProt Q01099 1-403)",decrease in root growth of the AtHIPM T-DNA mutant line (few AtHIPM transcripts) after treatment with 15 ug/ml of HrpN,[1],6%
same,root growth of the wild-type 10 days after treatment with 15 ug/ml of HrpN,[1],9%
same,top growth of the wild-type plants one week after spraying with 15 ug/ml of HrpN,[1],10%
B1,binding result,[2],no binding
same,binding result,[3],binds
same,binding result,[4],no binding
same,binding result,[5],binds
B2,binding result,[4],binds
B3,binding result,[6],binds
same,binding result,[4],no binding
